Experimental data published in patent US20100260668A1 (published 2010).

Biological target: T1, VEGF (UniProt P15692-4 27-191)
T1 construct: Bought reagent; also called vascular endothelial growth factor
Test: SPR (Biacore), DVD-Ig captured, VEGF in solution

T1 sequence (P15692 other isoform, or with tags, fused parts or gaps limits assumed): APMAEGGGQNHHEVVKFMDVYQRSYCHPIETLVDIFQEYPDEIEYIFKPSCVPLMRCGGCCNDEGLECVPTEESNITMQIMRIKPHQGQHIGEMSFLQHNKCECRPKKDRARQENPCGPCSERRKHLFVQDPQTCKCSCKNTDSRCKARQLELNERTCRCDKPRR

Row | Binder | Kd [nM] | koff [s⁻¹] | kon [M⁻¹ s⁻¹]
1 | DVD531 (bispecific antibody, human IgG1, kappa, lambda, DVD-Ig; N-term; VD AB073 (DLL4), C-term; VD AB070 (VEGF); HC linker short, LC linker long; also called DVD531H; DVD531L) heavy: not shown light: QAVVTQESALTTSPGETVTLTCRSSTGAVTTSNYANWVQEKPDHLFTGLIGGTNNRAPGVPARFSGSLIGDKAALTITGAQTEDEAIYFCALWYSNHWVFGGGTKLTVLGQPKAAPSVTLFPPDIQMTQSPSSLSASVGDRVTITCRASQDVSTAVAWYQQKPGKAPKLLIYSASFLYSGVPSRFSGSGSGTDFTLTISSLQPEDFATYYCQQSYTTPPTFGQGTKVEIKRTVAAPSVFIFPPSDEQLKSGTASVVCLLNNFYPREAKVQWKVDNALQSGNSQESVTEQDSKDSTYSLSSTLTLSKADYEKHKVYACEVTHQGLSSPVTKSFNRGEC | 0.584 | 0.000442 | 756000
2 | DVD507 (bispecific antibody, human IgG1, kappa, L234A L235A, DVD-Ig; N-term; VD AB072 (DLL4), C-term; VD AB070 (VEGF); HC linker short, LC linker long; also called DVD507H; DVD507L) heavy: not shown light: DIQMTQSSSYLSVSLGGRVTITCKASDHINNWLAWYQQKPGNAPRLLISGATSLETGVPSRFSGSGSGKDYTLSITSLQTEDVATYYCQQYWSIPLTFGAGTKLELKRTVAAPSVFIFPPDIQMTQSPSSLSASVGDRVTITCRASQDVSTAVAWYQQKPGKAPKLLIYSASFLYSGVPSRFSGSGSGTDFTLTISSLQPEDFATYYCQQSYTTPPTFGQGTKVEIKRTVAAPSVFIFPPSDEQLKSGTASVVCLLNNFYPREAKVQWKVDNALQSGNSQESVTEQDSKDSTYSLSSTLTLSKADYEKHKVYACEVTHQGLSSPVTKSFNRGEC | 0.847 | 0.000201 | 238000
3 | DVD525 (bispecific antibody, human IgG1, kappa, DVD-Ig; N-term; VD AB073 (DLL4), C-term; VD AB070 (VEGF); HC linker long, LC linker short; also called DVD525H; DVD525L) heavy: not shown light: QAVVTQESALTTSPGETVTLTCRSSTGAVTTSNYANWVQEKPDHLFTGLIGGTNNRAPGVPARFSGSLIGDKAALTITGAQTEDEAIYFCALWYSNHWVFGGGTKLTVLGQPKAAPDIQMTQSPSSLSASVGDRVTITCRASQDVSTAVAWYQQKPGKAPKLLIYSASFLYSGVPSRFSGSGSGTDFTLTISSLQPEDFATYYCQQSYTTPPTFGQGTKVEIKRTVAAPSVFIFPPSDEQLKSGTASVVCLLNNFYPREAKVQWKVDNALQSGNSQESVTEQDSKDSTYSLSSTLTLSKADYEKHKVYACEVTHQGLSSPVTKSFNRGEC | 0.447 | 0.000483 | 1.08e+06
4 | DVD484 (bispecific antibody, human IgG1, kappa, DVD-Ig; N-term; VD AB070 (VEGF), C-term; VD AB015 (DLL4); HC linker short, LC linker long; also called DVD484H; DVD484L) heavy: not shown light: DIQMTQSPSSLSASVGDRVTITCRASQDVSTAVAWYQQKPGKAPKLLIYSASFLYSGVPSRFSGSGSGTDFTLTISSLQPEDFATYYCQQSYTTPPTFGQGTKVEIKRTVAAPSVFIFPPDIQMTQSPSSLSASVGDRVTITCRASQDVSTAVAWYQQKPGKAPKLLIYSASFLYSGVPSRFSGSGSGTDFTLTISSLQPEDFATTYYCQQSYTGTVTFGQGTKVEIKRTVAAPSVFIFPPSDEQLKSGTASVVCLLNNFYPREAKVQWKVDNALQSGNSQESVTEQDSKDSTYSLSSTLTLSKADYEKHKVYACEVTHQGLSSPVTKSFNRGEC | 0.255 | 0.0041 | 1.61e+07
5 | DVD489 (bispecific antibody, human IgG1, kappa, L234A L235A, DVD-Ig; N-term; VD AB072 (DLL4), C-term; VD AB070 (VEGF); HC linker short, LC linker short; also called DVD489H; DVD489L) heavy: not shown light: DIQMTQSSSYLSVSLGGRVTITCKASDHINNWLAWYQQKPGNAPRLLISGATSLETGVPSRFSGSGSGKDYTLSITSLQTEDVATYYCQQYWSIPLTFGAGTKLELKRTVAAPDIQMTQSPSSLSASVGDRVTITCRASQDVSTAVAWYQQKPGKAPKLLIYSASFLYSGVPSRFSGSGSGTDFTLTISSLQPEDFATYYCQQSYTTPPTFGQGTKVEIKRTVAAPSVFIFPPSDEQLKSGTASVVCLLNNFYPREAKVQWKVDNALQSGNSQESVTEQDSKDSTYSLSSTLTLSKADYEKHKVYACEVTHQGLSSPVTKSFNRGEC | 1.76 | 0.000365 | 207000
6 | DVD478 (bispecific antibody, human IgG1, kappa, DVD-Ig; N-term; VD AB070 (VEGF), C-term; VD AB015 (DLL4); HC linker long, LC linker short; also called DVD478H; DVD478L) heavy: not shown light: DIQMTQSPSSLSASVGDRVTITCRASQDVSTAVAWYQQKPGKAPKLLIYSASFLYSGVPSRFSGSGSGTDFTLTISSLQPEDFATYYCQQSYTTPPTFGQGTKVEIKRTVAAPDIQMTQSPSSLSASVGDRVTITCRASQDVSTAVAWYQQKPGKAPKLLIYSASFLYSGVPSRFSGSGSGTDFTLTISSLQPEDFATTYYCQQSYTGTVTFGQGTKVEIKRTVAAPSVFIFPPSDEQLKSGTASVVCLLNNFYPREAKVQWKVDNALQSGNSQESVTEQDSKDSTYSLSSTLTLSKADYEKHKVYACEVTHQGLSSPVTKSFNRGEC | 0.354 | 0.000195 | 552000

Second part, the binder after the results:

Row | Kd [nM] | koff [s⁻¹] | kon [M⁻¹ s⁻¹] | Binder
7 | 0.223 | 0.00522 | 2.35e+07 | DVD519 (bispecific antibody, human IgG1, kappa, lambda, DVD-Ig; N-term; VD AB073 (DLL4), C-term; VD AB070 (VEGF); HC linker long, LC linker long; also called DVD519H; DVD519L) heavy: not shown light: QAVVTQESALTTSPGETVTLTCRSSTGAVTTSNYANWVQEKPDHLFTGLIGGTNNRAPGVPARFSGSLIGDKAALTITGAQTEDEAIYFCALWYSNHWVFGGGTKLTVLGQPKAAPSVTLFPPDIQMTQSPSSLSASVGDRVTITCRASQDVSTAVAWYQQKPGKAPKLLIYSASFLYSGVPSRFSGSGSGTDFTLTISSLQPEDFATYYCQQSYTTPPTFGQGTKVEIKRTVAAPSVFIFPPSDEQLKSGTASVVCLLNNFYPREAKVQWKVDNALQSGNSQESVTEQDSKDSTYSLSSTLTLSKADYEKHKVYACEVTHQGLSSPVTKSFNRGEC
8 | 0.46 | 8.15e-05 | 177000 | DVD455 (bispecific antibody, human IgG1, kappa, DVD-Ig; N-term; VD AB069 (DLL4), C-term; VD AB070 (VEGF); HC linker long, LC linker short; also called DVD455H; DVD455L) heavy: not shown light: DIVMTQSPDSLAVSLGERATISCRASESVDNYGISFMKWFQQKPGQPPKLLIYAASNQGSGVPDRFSGSGSGTDFTLTISSLQAEDVAVYYCQQSKEVPWTFGGGTKVEIKRTVAAPDIQMTQSPSSLSASVGDRVTITCRASQDVSTAVAWYQQKPGKAPKLLIYSASFLYSGVPSRFSGSGSGTDFTLTISSLQPEDFATYYCQQSYTTPPTFGQGTKVEIKRTVAAPSVFIFPPSDEQLKSGTASVVCLLNNFYPREAKVQWKVDNALQSGNSQESVTEQDSKDSTYSLSSTLTLSKADYEKHKVYACEVTHQGLSSPVTKSFNRGEC
9 | 0.75 | 0.000202 | 269000 | DVD461 (bispecific antibody, human IgG1, kappa, DVD-Ig; N-term; VD AB069 (DLL4), C-term; VD AB070 (VEGF); HC linker short, LC linker long; also called DVD461H; DVD461L) heavy: not shown light: DIVMTQSPDSLAVSLGERATISCRASESVDNYGISFMKWFQQKPGQPPKLLIYAASNQGSGVPDRFSGSGSGTDFTLTISSLQAEDVAVYYCQQSKEVPWTFGGGTKVEIKRTVAAPSVFIFPPDIQMTQSPSSLSASVGDRVTITCRASQDVSTAVAWYQQKPGKAPKLLIYSASFLYSGVPSRFSGSGSGTDFTLTISSLQPEDFATYYCQQSYTTPPTFGQGTKVEIKRTVAAPSVFIFPPSDEQLKSGTASVVCLLNNFYPREAKVQWKVDNALQSGNSQESVTEQDSKDSTYSLSSTLTLSKADYEKHKVYACEVTHQGLSSPVTKSFNRGEC
10 | 0.645 | 0.000204 | 316000 | DVD495 (bispecific antibody, human IgG1, kappa, DVD-Ig; N-term; VD AB072 (DLL4), C-term; VD AB070 (VEGF); HC linker long, LC linker long; also called DVD495H; DVD495L) heavy: not shown light: DIQMTQSSSYLSVSLGGRVTITCKASDHINNWLAWYQQKPGNAPRLLISGATSLETGVPSRFSGSGSGKDYTLSITSLQTEDVATYYCQQYWSIPLTFGAGTKLELKRTVAAPSVFIFPPDIQMTQSPSSLSASVGDRVTITCRASQDVSTAVAWYQQKPGKAPKLLIYSASFLYSGVPSRFSGSGSGTDFTLTISSLQPEDFATYYCQQSYTTPPTFGQGTKVEIKRTVAAPSVFIFPPSDEQLKSGTASVVCLLNNFYPREAKVQWKVDNALQSGNSQESVTEQDSKDSTYSLSSTLTLSKADYEKHKVYACEVTHQGLSSPVTKSFNRGEC
11 | 1.24 | 0.000497 | 400000 | DVD513 (bispecific antibody, human IgG1, kappa, DVD-Ig; N-term; VD AB073 (DLL4), C-term; VD AB070 (VEGF); HC linker short, LC linker short; also called DVD513H; DVD513L) heavy: not shown light: QAVVTQESALTTSPGETVTLTCRSSTGAVTTSNYANWVQEKPDHLFTGLIGGTNNRAPGVPARFSGSLIGDKAALTITGAQTEDEAIYFCALWYSNHWVFGGGTKLTVLGQPKAAPDIQMTQSPSSLSASVGDRVTITCRASQDVSTAVAWYQQKPGKAPKLLIYSASFLYSGVPSRFSGSGSGTDFTLTISSLQPEDFATYYCQQSYTTPPTFGQGTKVEIKRTVAAPSVFIFPPSDEQLKSGTASVVCLLNNFYPREAKVQWKVDNALQSGNSQESVTEQDSKDSTYSLSSTLTLSKADYEKHKVYACEVTHQGLSSPVTKSFNRGEC
12 | 0.201 | 0.00024 | 1.2e+06 | DVD472 (bispecific antibody, human IgG1, kappa, DVD-Ig; N-term; VD AB070 (VEGF), C-term; VD AB015 (DLL4); HC linker long, LC linker long; also called DVD472H; DVD472L) heavy: not shown light: DIQMTQSPSSLSASVGDRVTITCRASQDVSTAVAWYQQKPGKAPKLLIYSASFLYSGVPSRFSGSGSGTDFTLTISSLQPEDFATYYCQQSYTTPPTFGQGTKVEIKRTVAAPSVFIFPPDIQMTQSPSSLSASVGDRVTITCRASQDVSTAVAWYQQKPGKAPKLLIYSASFLYSGVPSRFSGSGSGTDFTLTISSLQPEDFATTYYCQQSYTGTVTFGQGTKVEIKRTVAAPSVFIFPPSDEQLKSGTASVVCLLNNFYPREAKVQWKVDNALQSGNSQESVTEQDSKDSTYSLSSTLTLSKADYEKHKVYACEVTHQGLSSPVTKSFNRGEC
13 | 0.162 | 0.0038 | 2.35e+07 | DVD444 (bispecific antibody, human IgG1, kappa, DVD-Ig; N-term; VD AB070 (VEGF), C-term; VD AB069 (DLL4); HC linker short, LC linker short; also called DVD444H; DVD444L) heavy: not shown light: DIQMTQSPSSLSASVGDRVTITCRASQDVSTAVAWYQQKPGKAPKLLIYSASFLYSGVPSRFSGSGSGTDFTLTISSLQPEDFATYYCQQSYTTPPTFGQGTKVEIKRTVAAPDIVMTQSPDSLAVSLGERATISCRASESVDNYGISFMKWFQQKPGQPPKLLIYAASNQGSGVPDRFSGSGSGTDFTLTISSLQAEDVAVYYCQQSKEVPWTFGGGTKVEIKRTVAAPSVFIFPPSDEQLKSGTASVVCLLNNFYPREAKVQWKVDNALQSGNSQESVTEQDSKDSTYSLSSTLTLSKADYEKHKVYACEVTHQGLSSPVTKSFNRGEC
14 | 0.821 | 0.000175 | 213000 | DVD501 (bispecific antibody, human IgG1, kappa, DVD-Ig; N-term; VD AB072 (DLL4), C-term; VD AB070 (VEGF); HC linker long, LC linker short; also called DVD501H; DVD501L) heavy: not shown light: DIQMTQSSSYLSVSLGGRVTITCKASDHINNWLAWYQQKPGNAPRLLISGATSLETGVPSRFSGSGSGKDYTLSITSLQTEDVATYYCQQYWSIPLTFGAGTKLELKRTVAAPDIQMTQSPSSLSASVGDRVTITCRASQDVSTAVAWYQQKPGKAPKLLIYSASFLYSGVPSRFSGSGSGTDFTLTISSLQPEDFATYYCQQSYTTPPTFGQGTKVEIKRTVAAPSVFIFPPSDEQLKSGTASVVCLLNNFYPREAKVQWKVDNALQSGNSQESVTEQDSKDSTYSLSSTLTLSKADYEKHKVYACEVTHQGLSSPVTKSFNRGEC
15 | 0.71 | 0.000393 | 553000 | DVD466 (bispecific antibody, human IgG1, kappa, DVD-Ig; N-term; VD AB070 (VEGF), C-term; VD AB015 (DLL4); HC linker short, LC linker short; also called DVD466H; DVD466L) heavy: not shown light: DIQMTQSPSSLSASVGDRVTITCRASQDVSTAVAWYQQKPGKAPKLLIYSASFLYSGVPSRFSGSGSGTDFTLTISSLQPEDFATYYCQQSYTTPPTFGQGTKVEIKRTVAAPDIQMTQSPSSLSASVGDRVTITCRASQDVSTAVAWYQQKPGKAPKLLIYSASFLYSGVPSRFSGSGSGTDFTLTISSLQPEDFATTYYCQQSYTGTVTFGQGTKVEIKRTVAAPSVFIFPPSDEQLKSGTASVVCLLNNFYPREAKVQWKVDNALQSGNSQESVTEQDSKDSTYSLSSTLTLSKADYEKHKVYACEVTHQGLSSPVTKSFNRGEC
